Results as given in patent publication US20230295559A1 (PIVOT BIO, published 2023).

Target: T1, glutamine synthetase GlnA (Paenibacillus polymyxa CI41)
T1 chain: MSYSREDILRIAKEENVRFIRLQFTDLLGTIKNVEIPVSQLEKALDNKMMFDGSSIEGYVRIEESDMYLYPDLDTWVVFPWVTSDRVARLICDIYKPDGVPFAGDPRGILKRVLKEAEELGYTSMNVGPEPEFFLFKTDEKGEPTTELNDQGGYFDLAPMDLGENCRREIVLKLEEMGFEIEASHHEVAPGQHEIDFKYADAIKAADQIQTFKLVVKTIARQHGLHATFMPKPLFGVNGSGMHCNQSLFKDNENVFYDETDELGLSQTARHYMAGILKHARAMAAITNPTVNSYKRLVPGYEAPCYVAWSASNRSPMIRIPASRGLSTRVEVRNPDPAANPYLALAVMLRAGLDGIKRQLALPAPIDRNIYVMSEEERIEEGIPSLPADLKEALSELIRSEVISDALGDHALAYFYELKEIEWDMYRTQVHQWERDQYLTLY
Assay: cell-based or functional assay

B1: GlnR with C-terminal deletion (Δ113-137) (other)
chain: MGDEIRRNMALFPIGIVMKLTDLSARQIRYYEQHNLIVPARTSGNQRLFSFNDVERLLEIKALIEKGVNIAGIKQVMNPVTKESEEATVITADTEVKRREMSDTQLHRLLKQ
overall nitrogenase activity (acetylene reduction assay): 5 fold
